Measured values taken from article PMC3572760 (Advances and Applications in Bioinformatics and Chemistry : …, 2013).

Experiments:
[1] = system: C=C(OP(=O)(O)O)C(=O)O; experiment: purified protein
[2] = system: O=C(O)C1=C[C@@H](OP(=O)(O)O)[C@@H](O)[C@H](O)C1; experiment: purified protein
[3] = molecular target: 5-enolpyruvylshikimate-3-phosphate synthase (EPSPS) (Mycobacterium tuberculosis, UniProt P9WPY5); experiment: biochemical
[4] = molecular target: T1, 5-enolpyruvylshikimate-3-phosphate synthase (EPSPS) (Escherichia coli, UniProt P0A6D3); type: biochemical
T1 sequence (P0A6D3 1-427): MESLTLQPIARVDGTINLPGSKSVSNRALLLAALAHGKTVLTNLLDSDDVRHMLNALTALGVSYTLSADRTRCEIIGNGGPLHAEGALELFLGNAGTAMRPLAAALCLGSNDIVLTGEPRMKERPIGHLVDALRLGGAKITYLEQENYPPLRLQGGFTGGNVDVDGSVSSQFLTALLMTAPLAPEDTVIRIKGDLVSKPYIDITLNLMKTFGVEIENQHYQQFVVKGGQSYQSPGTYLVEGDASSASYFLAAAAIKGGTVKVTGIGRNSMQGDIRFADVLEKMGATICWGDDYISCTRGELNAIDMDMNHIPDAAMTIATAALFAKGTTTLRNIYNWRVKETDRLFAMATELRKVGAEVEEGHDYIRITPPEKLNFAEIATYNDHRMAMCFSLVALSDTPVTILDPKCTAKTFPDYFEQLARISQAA

[5] = substrate: C=C(OP(=O)(O)O)C(=O)O; experiment: steady-state kinetics; type: biochemical, Escherichia coli; conditions: PEP/glyphosate-binding pocket

Sequence of 5-enolpyruvylshikimate-3-phosphate synthase (EPSPS) (Mycobacterium tuberculosis, UniProt P9WPY5) (P9WPY5 whole entry): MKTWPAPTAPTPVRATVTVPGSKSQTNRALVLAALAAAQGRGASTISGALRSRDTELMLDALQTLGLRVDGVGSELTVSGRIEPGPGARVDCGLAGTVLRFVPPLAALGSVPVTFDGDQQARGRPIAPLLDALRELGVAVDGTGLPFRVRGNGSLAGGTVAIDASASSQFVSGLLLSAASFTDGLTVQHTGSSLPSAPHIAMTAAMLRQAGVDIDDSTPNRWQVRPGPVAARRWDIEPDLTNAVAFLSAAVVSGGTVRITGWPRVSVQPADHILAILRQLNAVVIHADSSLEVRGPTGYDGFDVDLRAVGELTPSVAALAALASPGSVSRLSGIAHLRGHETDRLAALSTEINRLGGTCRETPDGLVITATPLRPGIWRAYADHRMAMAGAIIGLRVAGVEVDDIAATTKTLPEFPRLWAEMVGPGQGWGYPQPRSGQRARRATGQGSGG

In the case of “5-enolpyruvylshikimate-3-phosphate synthase (EPSPS) (Mycobacterium tuberculosis H37Rv)”, the Km [1] is reported as 104 µM and the Km [2] is reported as 16 µM.

Molecule `O=C(O)CNCP(=O)(O)O` [glyphosate, N-phosphonomethyl-glycine] has an IC50 [3] of 260 µM and an IC50 [4] of 3 µM.

B1: 5-enolpyruvylshikimate-3-phosphate synthase (EPSPS) (Escherichia coli K-12) (protein)
chain: MESLTLQPIARVDGTINLPGSKSVSNRALLLAALAHGKTVLTNLLDSDDVRHMLNALTALGVSYTLSADRTRCEIIGNGGPLHAEGALELFLGNAGTAMRPLAAALCLGSNDIVLTGEPRMKERPIGHLVDALRLGGAKITYLEQENYPPLRLQGGFTGGNVDVDGSVSSQFLTALLMTAPLAPEDTVIRIKGDLVSKPYIDITLNLMKTFGVEIENQHYQQFVVKGGQSYQSPGTYLVEGDASSASYFLAAAAIKGGTVKVTGIGRNSMQGDIRFADVLEKMGATICWGDDYISCTRGELNAIDMDMNHIPDAAMTIATAALFAKGTTTLRNIYNWRVKETDRLFAMATELRKVGAEVEEGHDYIRITPPEKLNFAEIATYNDHRMAMCFSLVALSDTPVTILDPKCTAKTFPDYFEQLARISQAA
B1 gave a Km [5] of 52 µM.
